Laboratory results as given in patent US20250388702A1 (Dana-Farber, published 2025).

T1: Human HHLA2-mIgG2a fusion protein (human; mouse, UniProt Q9UM44 23-344, limits assumed)
T1 construct: also called HHLA2-Ig; HHLA2-mouse IgG2a; not shown: mutated at IgG2a L235E, E318A, K320A, K322A
T1 sequence: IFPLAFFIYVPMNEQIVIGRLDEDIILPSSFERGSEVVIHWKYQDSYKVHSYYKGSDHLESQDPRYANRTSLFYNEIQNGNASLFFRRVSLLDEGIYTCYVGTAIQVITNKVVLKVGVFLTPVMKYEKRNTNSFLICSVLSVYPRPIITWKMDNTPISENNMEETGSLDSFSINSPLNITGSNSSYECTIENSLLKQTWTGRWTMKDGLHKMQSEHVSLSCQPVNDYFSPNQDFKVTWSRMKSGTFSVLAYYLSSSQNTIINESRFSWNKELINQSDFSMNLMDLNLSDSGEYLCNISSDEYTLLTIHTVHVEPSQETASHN


Columns and labels:
[1] = target: T1, Human HHLA2-mIgG2a fusion protein; experiment: cell microarray on transfected HEK293 cells, HHLA2-mIgG2a probe, AF647 anti-mouse IgG detection
Protocol: A library of ˜5500 full length cDNA clones covering more than 3,500 different plasma membrane proteins was arrayed in duplicate across 13 microarray slides (“slide sets”). Human HEK293 cells were grown above the cDNA clones and reverse-transfected. An expression vector (pIRES-hEGFR-IRES-ZsGreen1) was spotted in quadruplicate on every slide and was used to ensure that a minimal threshold of transfection efficiency had been achieved or exceeded on every slide.
Two replicate slides were screened for each of the 13 slide sets. Fluorescent images were analyzed and quantitated (for transfection efficiency) using ImageQuant software (GE). A protein ‘hit’ was defined as duplicate spots showing a raised signal compared to background levels. This was achieved by visual inspection using the images gridded on the ImageQuant software.

[2] = target: T2, Human KIR3DL3, Sino Biological Cat#: 16055-H08H (human, UniProt Q8N743 26-322); experiment: BLI (Octet RED96), antibody captured on the sensor, antigen in solution, 1:1 model
T2 construct: Bought soluble antigen; also called KIR3DL3 (Octet antigen)
T2 sequence (Q8N743 other isoform, or with tags, fused parts or gaps H08H H08H limits assumed): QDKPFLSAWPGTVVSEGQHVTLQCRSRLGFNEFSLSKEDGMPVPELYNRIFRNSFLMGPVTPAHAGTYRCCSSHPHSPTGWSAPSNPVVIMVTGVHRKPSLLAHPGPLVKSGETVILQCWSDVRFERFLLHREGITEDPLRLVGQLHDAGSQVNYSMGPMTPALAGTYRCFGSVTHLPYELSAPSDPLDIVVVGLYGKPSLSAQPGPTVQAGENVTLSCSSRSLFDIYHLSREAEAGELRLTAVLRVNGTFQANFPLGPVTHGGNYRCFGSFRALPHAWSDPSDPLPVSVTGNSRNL
Protocol: Binding experiments were performed on Octat Red af 25″° C. The human antibodies were loaded onto Anti-higG Fe Capture biosensors and the mouse antibodies were loaded onto Anti-migG Fe Capture biosensors both for 300 seconds. The ligand loaded sensors were dipped into a 3-fold series dilution (starting at 300 nad) of the antigens (PD-1 and KIR3DL3) for 240 seconds followed by dissociation for 400 seconds. Kinetic constanta were calculated using a monovalent (1:1) binding model Antigen: Haman PD1, Sino Biological Cat #: HPLC-10377-HOSH.

binding result [1] | Kd [2] | koff [2] | kon [2] | Binder
no binding (tested: 20 ug/ml) | – | – | – | KIR2DS3 (receptor, UniProt Q14952 22-304, looked up, whole, on cells) HEGFRRKPSLLAHPGRLVKSEETVILQCWSDVMFEHFLLHREGTFNDTLRLIGEHIDGVSKANFSIGRMRQDLAGTYRCYGSVPHSPYQFSAPSDPLDIVITGLYEKPSLSAQPGPTVLAGESVTLSCSSWSSYDMYHLSTEGEAHERRFSAGPKVNGTFQADFPLGPATQGGTYRCFGSFHDSPYEWSKSSDPLLVSVTGNPSNSWPSPTEPSSKTGNPRHLHVLIGTSVVKLPFTILLFFLLHRWCSDKKNASVMDQGPAGNRTVNREDSDEQDHQEVSYA
no binding (tested: 20 ug/ml) | – | – | – | KIR2DS1 (receptor, UniProt Q14954 22-304, looked up, whole, on cells) HEGVHRKPSLLAHPGRLVKSEETVILQCWSDVMFEHFLLHREGMFNDTLRLIGEHHDGVSKANFSISRMKQDLAGTYRCYGSVTHSPYQLSAPSDPLDIVIIGLYEKPSLSAQPGPTVLAGENVTLSCSSRSSYDMYHLSREGEAHERRLPAGTKVNGTFQANFPLGPATHGGTYRCFGSFRDSPYEWSKSSDPLLVSVTGNPSNSWPSPTEPSSETGNPRHLHVLIGTSVVKIPFTILLFFLLHRWCSDKKNAAVMDQEPAGNRTVNSEDSDEQDHQEVSYA
no binding (tested: 20 ug/ml) | – | – | – | KIR2DS2 (receptor, UniProt P43631 22-304, looked up, whole, on cells) HEGVHRKPSLLAHPGPLVKSEETVILQCWSDVRFEHFLLHREGKYKDTLHLIGEHHDGVSKANFSIGPMMQDLAGTYRCYGSVTHSPYQLSAPSDPLDIVITGLYEKPSLSAQPGPTVLAGESVTLSCSSRSSYDMYHLSREGEAHERRFSAGPKVNGTFQADFPLGPATHGGTYRCFGSFRDSPYEWSNSSDPLLVSVTGNPSNSWPSPTEPSSKTGNPRHLHVLIGTSVVKIPFTILLFFLLHRWCSNKKNAAVMDQEPAGNRTVNSEDSDEQDHQEVSYA
no binding (tested: 20 ug/ml) | – | – | – | CD86 (ligand, human, UniProt P42081 24-329, looked up, full length, on the cell surface) single chain: APLKIQAYFNETADLPCQFANSQNQSLSELVVFWQDQENLVLNEVYLGKEKFDSVHSKYMGRTSFDSDSWTLRLHNLQIKDKGLYQCIIHHKKPTGMIRIHQMNSELSVLANFSQPEIVPISNITENVYINLTCSSIHGYPEPKKMSVLLRTKNSTIEYDGVMQKSQDNVTELYDVSISLSVSFPDVTSNMTIFCILETDKTRLLSSPFSIELEDPQPPPDHIPWITAVLPTVIICVMVFCLILWKWKKKKRPRNSYKCGTNTMEREESEQTKKREKIHIPERSDEAQRVFKSSKTSSCDKSDTCF
– | 289 pM | 7.19e-05 s⁻¹ | 248000 M⁻¹ s⁻¹ | KIR3DL3 mAb 574.2.2F11.2.7.4 human IgG4 (S228P) (antibody, V domains shown, Chimeric: mouse 2F11 variable domains on human IgG4 (S228P) and human kappa (Km3); Signal peptide placeholder left out; also called LP KIR3DL3 mAb (TP-31851); KIR3DL3 mAb 2F11 human IgG4) VH: DVQLVESGGGLVQPGGSRKLSCAASGFTFSYFGMHWVRRAPEKGLEWVAFISSDSTTIYYTDTVKGRFTISRDNPKNTLFLQMTSLRSEDTAIYYCARFYDGAMDYWGQGTSVTVST VL: DIVMTQSQKFMSTSVGDRVSITCKASQSVRTAVAWYQQKPGQSPKVLIYLASNRHTGVPDRFTGSGSGTDFTLTISNVQSEDLADYFCLQHWNYPLTFGAGTKLELKR
